From publication PMC2818180 come the findings set out here.

In the assay the target is Affinity peptide KRTGQYKL immobilised in PEG hydrogel. The experiment in a line: absorption of bFGF into peptide-functionalized hydrogels.

“Recombinant human bFGF (from UniProt P09038 143-288) (ligand)” gave a bFGF absorbed in gel at 4.4 µM monovalent peptide of 27.3 ng/mg-gel.
